Test results taken from PMC9050003, “N- and C-terminal regions of the small heat shock protein IbpA from Acholeplasma laidlawii competitively govern its oligomerization pattern and chaperone-like activity†” (RSC Advances, 2020).
Residue numbers refer to the chain shown, from its start. Names and notes keep the numbering of the source.

How the values were obtained:
[1] = target: AlIbpAΔC14 (Acholeplasma laidlawii); test: SEC; Superdex 200 10/300, 0.5 ml min^−1, 1 mg ml^−1 protein, 100 μl injected; 50 mM NaCl, 50 mM KCl, 50 mM K2HPO4 pH 7.4; 30 °C; fractions as areas under the peaks; peaks also viewed by TEM
[2] = target: AlIbpAΔN12C14 (Acholeplasma laidlawii); test: as above
[3] = target: AlIbpAΔC14 (Acholeplasma laidlawii); test: SPR; BIAcore T200; His6-AlIbpA proteins immobilised on Ni2+-loaded NTA chip (FC2, about 2000 RU); His6-TnrA20 on FC1 as control, response difference FC2 − FC1; ADH 1.0 mg ml^−1 injected at 10 μl min^−1; 10 mM Na2HPO4, 150 mM NaCl, pH 7.4; KD calculated from the binding curve slopes
[4] = target: AlIbpASEPΔN25 (Acholeplasma laidlawii) (UniProt A9NFB2); test: as above
[5] = target: AlIbpAΔN25 (Acholeplasma laidlawii) (UniProt A9NFB2); test: as above
[6] = target: full-length recombinant AlIbpA (small heat shock protein IbpA from Acholeplasma laidlawii), His6-tagged (Acholeplasma laidlawii) (UniProt A9NFB2); test: as above
[7] = target: AlIbpASEPΔN12 (Acholeplasma laidlawii) (UniProt A9NFB2); test: as above
[8] = target: AlIbpAΔN12 (Acholeplasma laidlawii) (UniProt A9NFB2); test: as above
[9] = target: AlIbpAN11N12 (Acholeplasma laidlawii) (UniProt A9NFB2); test: as above
[10] = target: AlIbpAΔN25C14 (Acholeplasma laidlawii); test: SEC; Superdex 200 10/300, 0.5 ml min^−1, 1 mg ml^−1 protein, 100 μl injected; 50 mM NaCl, 50 mM KCl, 50 mM K2HPO4 pH 7.4; 30 °C; fractions as areas under the peaks; peaks also viewed by TEM
[11] = target: the molecule itself; test: as above
[12] = target: the molecule itself; test: as above; remark: listed apart in the source

AlIbpAΔC14 (domain or fragment)
fraction of the protein in I peak of the elution profile [1]: 7% | fraction of the protein in II peak of the elution profile [1]: 86%

AlIbpAΔN12C14 (domain or fragment)
fraction of the protein in I peak of the elution profile [2]: 1% | fraction of the protein in II peak of the elution profile [2]: 86%

alcohol dehydrogenase (enzyme)
Kd [3]: 700 nM | Kd [4]: 3200 nM | Kd [5]: 2200 nM | Kd [6]: 1600 nM | Kd [7]: 7200 nM | Kd [8]: 3500 nM | Kd [9]: 500 nM

AlIbpAΔN25C14 (domain or fragment)
fraction of the protein in I peak of the elution profile [10]: 1% | fraction of the protein in II peak of the elution profile [10]: 50%

B1: AlIbpAΔN25 (domain or fragment, Acholeplasma laidlawii, UniProt A9NFB2 26-137, looked up)
chain: TTSNLMRTDIKETQNGYSLSVELPGFKKEDVKVSLEDGYLTIEAHTSKNSETKDQATKYIRKERYEGTMKRSYYVGNLHLDEINGTFENGMLHIELPKETKKEPEKRYLELK
notes: AlIbpA of Acholeplasma laidlawii PG8 with 25 N-terminal amino acids removed (lacks both (W/F)(D/F)PF-like motifs); source: E. coli BL21(DE3), purified (Ni-NTA); not shown: His6, N-terminal, kept
fraction of the protein in I peak of the elution profile [11]: 77 ± 21.3% | fraction of the protein in II peak of the elution profile [11]: 12 ± 2.4%

B2: AlIbpASEPΔN25 (domain or fragment, Acholeplasma laidlawii, UniProt A9NFB2 26-137, looked up)
chain: B1 chain with L109S, L111P
notes: AlIbpA of Acholeplasma laidlawii PG8 lacking 25 N-terminal amino acids and with LEL substituted by SEP (L134S, L136P); source: E. coli BL21(DE3), purified (Ni-NTA); not shown: His6, N-terminal, kept
fraction of the protein in I peak of the elution profile [11]: 69 ± 15.5% | fraction of the protein in II peak of the elution profile [11]: 23 ± 3.2%

B3: AlIbpAΔN12 (domain or fragment, Acholeplasma laidlawii, UniProt A9NFB2 13-137, looked up)
chain: DDFFEDFNVLNPVTTSNLMRTDIKETQNGYSLSVELPGFKKEDVKVSLEDGYLTIEAHTSKNSETKDQATKYIRKERYEGTMKRSYYVGNLHLDEINGTFENGMLHIELPKETKKEPEKRYLELK
notes: AlIbpA of Acholeplasma laidlawii PG8 lacking the first 12 amino acid residues; source: E. coli BL21(DE3), purified (Ni-NTA); not shown: His6, N-terminal, kept
fraction of the protein in I peak of the elution profile [11]: 88 ± 17.1% | fraction of the protein in II peak of the elution profile [11]: 10 ± 1.1%

B4: AlIbpASEPΔN12 (domain or fragment, Acholeplasma laidlawii, UniProt A9NFB2 13-137, looked up)
chain: B3 chain with L122S, L124P
notes: AlIbpA of Acholeplasma laidlawii PG8 lacking 12 N-terminal amino acids and with LEL substituted by SEP (L134S, L136P); source: E. coli BL21(DE3), purified (Ni-NTA); not shown: His6, N-terminal, kept
fraction of the protein in I peak of the elution profile [11]: 2 ± 0.8% | fraction of the protein in II peak of the elution profile [11]: 59 ± 10.1%

B5: full-length recombinant AlIbpA (small heat shock protein IbpA from Acholeplasma laidlawii), His6-tagged (natural protein, UniProt A9NFB2 1-137, looked up)
chain: MLSLLNKNRSFFDDFFEDFNVLNPVTTSNLMRTDIKETQNGYSLSVELPGFKKEDVKVSLEDGYLTIEAHTSKNSETKDQATKYIRKERYEGTMKRSYYVGNLHLDEINGTFENGMLHIELPKETKKEPEKRYLELK
notes: small heat shock protein IbpA (AlIbpA) of Acholeplasma laidlawii PG8, full length; Legends call it AlIbpA-His6, the methods say the His6 tag is N-terminal; In solution a mixture of about 24-mer globules, fibrils and agglomerates; also called AlIbpA-His6; His6-IbpA; source: E. coli BL21(DE3), purified (Ni-NTA); also in E. coli BL21 pET-IbpA cells, cross-linked in the cells, crude cell extract; not …
stoichiometry N [12]: ~24 | fraction of the protein in I peak of the elution profile [11]: 23 ± 10.3% | fraction of the protein in II peak of the elution profile [11]: 74 ± 17.8%

B6: AlIbpASEP (natural protein, Acholeplasma laidlawii, UniProt A9NFB2 1-137, looked up)
chain: B5 chain with L134S, L136P
notes: AlIbpA of Acholeplasma laidlawii PG8 with the C-terminal LEL motif substituted by SEP (L134 to S134, L136 to P136), length of the C-terminus kept; source: E. coli BL21(DE3), purified (Ni-NTA); not shown: His6, N-terminal, kept
fraction of the protein in I peak of the elution profile [11]: 18 ± 4.4% | fraction of the protein in II peak of the elution profile [11]: 56 ± 7.8%

B7: AlIbpAN11N12 (natural protein, Acholeplasma laidlawii, UniProt A9NFB2 1-137, looked up)
chain: B5 chain with F11N, F12N
notes: AlIbpA of Acholeplasma laidlawii PG8 with F11F12 substituted by N11N12, complete N-terminus length kept; source: E. coli BL21(DE3), purified (Ni-NTA); not shown: His6, N-terminal, kept
stoichiometry N [12]: ~24 | fraction of the protein in I peak of the elution profile [11]: 8 ± 1.7% | fraction of the protein in II peak of the elution profile [11]: 88 ± 12.2%
